Measurements as given in paper PMC2811425.

How the values were obtained:
CC(=O)C(=O)O = test: cells, lysate or membranes
C[C@H](O)C(=O)O = test: cells, lysate or membranes

MCT1 (Rattus norvegicus)
Km (CC(=O)C(=O)O): 1.2 ± 0.2 mM | Km (C[C@H](O)C(=O)O): 5.7 ± 1.2 mM
